Source: US7964369 (Stanford University, dated 2011)

Molecular target: T1, SOS vector alone (hSOS without GRAIL) (human, UniProt Q07889 1-1066)
T1 construct: Negative control bait of the yeast two-hybrid screen
T1 sequence (looked up): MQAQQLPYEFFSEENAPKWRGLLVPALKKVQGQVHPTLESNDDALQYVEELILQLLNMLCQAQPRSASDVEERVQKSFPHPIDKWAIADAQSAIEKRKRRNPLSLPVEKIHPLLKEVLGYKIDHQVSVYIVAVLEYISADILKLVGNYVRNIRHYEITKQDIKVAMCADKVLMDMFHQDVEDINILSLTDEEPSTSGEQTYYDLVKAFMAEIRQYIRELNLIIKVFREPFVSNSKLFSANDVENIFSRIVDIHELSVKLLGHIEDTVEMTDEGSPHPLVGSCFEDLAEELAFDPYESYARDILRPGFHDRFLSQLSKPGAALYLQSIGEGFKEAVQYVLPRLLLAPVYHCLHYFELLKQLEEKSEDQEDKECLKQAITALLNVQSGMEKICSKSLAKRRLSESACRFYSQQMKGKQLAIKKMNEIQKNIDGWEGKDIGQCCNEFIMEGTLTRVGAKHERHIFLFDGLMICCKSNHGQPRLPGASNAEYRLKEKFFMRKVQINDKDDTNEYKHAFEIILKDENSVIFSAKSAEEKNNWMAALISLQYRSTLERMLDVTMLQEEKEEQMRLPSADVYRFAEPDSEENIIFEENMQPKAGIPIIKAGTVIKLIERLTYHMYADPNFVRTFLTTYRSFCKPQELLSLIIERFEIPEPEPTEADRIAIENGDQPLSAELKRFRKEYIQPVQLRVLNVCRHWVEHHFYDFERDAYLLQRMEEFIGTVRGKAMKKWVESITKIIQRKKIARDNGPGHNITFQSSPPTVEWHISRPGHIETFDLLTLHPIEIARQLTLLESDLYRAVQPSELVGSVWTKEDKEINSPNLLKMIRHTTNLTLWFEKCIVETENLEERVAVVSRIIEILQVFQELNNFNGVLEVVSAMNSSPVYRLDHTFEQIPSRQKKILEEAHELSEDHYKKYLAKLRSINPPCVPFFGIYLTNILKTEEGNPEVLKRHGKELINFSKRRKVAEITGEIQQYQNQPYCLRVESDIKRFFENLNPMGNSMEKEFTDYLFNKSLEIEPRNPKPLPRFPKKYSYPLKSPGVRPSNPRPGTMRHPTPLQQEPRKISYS
Assay: yeast two-hybrid (CytoTrap), secondary screen, growth on galactose at 37 C
Description: Table I: A mouse liver library cloned into pMyr vector was purchased from Stratagene (La Jolla, CA). The C-terminal half of GRAIL, starting at F225 was PCR amplified, cloned into the pSOS vector, and used as bait. Yeast competent cells were co-transformed with either the bait and library or control vectors as described in the CytoTrap instruction manual (Stratagene). More than 5 x 10^5 clones were screened. Colonies displaying growth on galactose but not glucose at 37° C. were considered to be putative positives and were evaluated in a secondary screen. Colonies growing in the secondary screen on galactose at 37° C. and in the presence of the GRAIL-SOS bait vector, but not the SOS vector alone, were considered true interactors and sequenced.
Yeast and bacterial two-hybrid analysis. A mouse liver library cloned into pMyr vector was purchased from Stratagene (La Jolla, Calif.). The C-terminal half of Grail, starting at F225, was PCR amplified, cloned into the pSOS vector, and used as bait. Yeast competent cells were co-transformed with either the bait and library or control vectors as described in the CytoTrap instruction manual (Stratagene). More than 5 ×10^5 clones were screened. Colonies displaying growth on galactose but not glucose at 37° C. were considered to be putative positives and were used on a secondary screen. […]

B1: clone 6A-36 (98% identical to human FLJ20113, OTUBAIN-1) (enzyme, mouse, UniProt Q7TQI3 97-271, looked up)
chain: GFSHLEALLDDSKELQRFKAVSAKSKEDLVSQGFTEFTIEDFHNTFMDLIEQVEKQTSVADLLASFNDQSTSDYLVVYLRLLTSGYLQRESKFFEHFIEGGRTVKEFCQQEVEPMCKESDHIHIIALAQALSVSIQVEYMDRGEGGTTNPHVFPEGSEPKVYLLYRPGHYDILYK
notes: Partial clone of mouse otubain-1; also called 525 bp insert; 525 bp cDNA fragment; not shown: myristoylation signal of the pMyr plasmid
binding result: no binding
